Data published in publication PMC4169579, “Proteolytic Activity of Prostate-Specific Antigen (PSA) towards Protein Substrates and Effect of Peptides Stimulating PSA Activity” (PLoS ONE, 2014).
“And” between values parts separate entries of the source, which are not always exact repeats. Equal entries are not always repeated.

Tests used:
[1] = biological target: T1, PSA (Homo sapiens, UniProt P07288); experiment: Proteolytic cleavage of protein substrates by PSA (SDS-PAGE, silver staining); assay type: biochemical; conditions: 37°C; for time for degradation of half of the intact protein: substrate 1 µM (0.5 µM semenogelin I)
T1 construct: from tissue; host or cells: pooled human seminal fluid
T1 sequence (P07288 25-261): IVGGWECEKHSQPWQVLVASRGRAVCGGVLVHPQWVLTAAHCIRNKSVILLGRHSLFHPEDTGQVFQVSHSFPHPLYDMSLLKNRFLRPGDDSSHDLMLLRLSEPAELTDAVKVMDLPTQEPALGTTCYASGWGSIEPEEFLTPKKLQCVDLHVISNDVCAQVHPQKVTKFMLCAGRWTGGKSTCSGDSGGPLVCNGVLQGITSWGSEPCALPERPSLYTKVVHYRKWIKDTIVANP
Method: The major form of active PSA (isoform PSA-B) was purified from pooled human seminal fluid by immunoaffinity chromatography followed by anion exchange chromatography. Semenogelins I and II were isolated from human seminal fluid as previously described, but instead of alkylating the proteins, the reducing agent 30 mM dithiothreitol (Sigma-Aldrich, St. Louis, MO) was included in all buffers during purification. Semenogelins were stored in the purification buffer containing 2 M urea and 5 mM EDTA at −70°C. Prior to cleavage by PSA, the buffer was exchanged to 50 mM Tris, pH 7.7, containing 0.15 M NaCl (TBS), with Amicon Ultra centrifugal filter units (MW cut-off 30 kDa) (Millipore, Cork, Ireland) at 4°C, and protein concentration was determined by measuring absorbance at 280 nm.
Protein LoBind tubes (Eppendorf AG, Hamburg, Germany) were used in all protein degradation experiments.
PSA (0.2–1 µM) and 0.5–1 µM of each protein substrate were incubated at 37°C for 22 h in TBS buffer. During the incubation, samples of 15 µl were taken at different time points: 0 min, 10 min, 30 min, 2 h, 5 h and 22 h, and stored at −20°C before further analysis.
Immediately after each incubation, reducing 4× SDS-loading buffer (8% SDS), containing 1 M β-mercaptoethanol or 75 mM dithiothreitol, was added to each sample and proteins were denatured at 70°C for 10 min. The samples were immediately analyzed by SDS-PAGE or frozen at −20°C. Frozen samples were heated again at 70°C before loading on the gel. The cleavage of protein substrates by PSA, i.e., the disappearance of the full-length protein bands, was quantified from scanned images of silver stained gels by the measurement of relative optical densities of the protein bands using ImageJ [40].
Proteins were separated using the XCell SureLock Mini Cell system and pre-cast NuPAGE Novex 4–12% Bis-Tris Gels (both from Invitrogen, Carlsbad, CA). MES running buffer, pH 7.3, containing 50 mM MES [2-(N-morpholino)ethanesulfonic acid] (Sigma-Aldrich), 50 mM Tris base, 3.5 mM SDS and 1 mM EDTA was used. Dithiothreitol (0.5 mM) (Sigma-Aldrich) was added to the cathode buffer chamber.
Proteins were visualized either by silver staining or Western blotting. For silver staining (modified from), the gel was fixed for one hour at room temperature in 30% ethanol, containing 0.5% acetic acid, and rinsed with 20% ethanol and water for 10 min each. Then the gel was sensitized with 0.02% sodium thiosulfate for 1 min and rinsed twice with water. After 30 min incubation in 0.2% AgNO3, the gel was rinsed briefly with water and proteins were detected with development solution, containing 700 µl/l of 37% formaldehyde, 0.001% sodium thiosulfate and 3% anhydrous Na2CO3. The development reaction was finished with stop solution containing 5% Tris and 2.5% acetic acid.

[2] = biological target: T1, PSA; conditions: more than half of semenogelin I degraded; ref Malm and coworkers (2000), [16], [63]; cited from earlier work
Method: In the present study, we compared the proteolytic activity of PSA towards several protein substrates. As shown previously, semenogelins are cleaved very effectively by PSA. Malm and coworkers (2000) reported that more than half of semenogelin I is degraded after 15 min incubation with PSA [16], [63] and we observed this after 11 min incubation. Proteolysis of the other protein substrates, i.e., fibronectin, IGFBP-3, galectin-3 and nidogen-1, took much longer, reflecting the high substrate specificity of PSA for semenogelins. […] However, the detailed mechanism of the antiangiogenic activity of PSA remains unclear. Some of the proteolytically produced fragments of extracellular matrix (ECM) proteins act as endogenous angiogenesis inhibitors and may mediate the antiangiogenic effect of PSA. […] Although plasminogen ...

[3] = biological target: T1, PSA; experiment: N-terminal sequencing of nidogen-1 fragments generated by PSA; assay type: biochemical; conditions: recombinant human nidogen-1, 1 µM, 2 µM PSA, 22 h, 37°C; Edman degradation; UniProt P14543 numbering
Method: For N-terminal sequencing, 1 µM (10 µg) nidogen-1 was first incubated with 2 µM (5 µg) PSA for 22 h at 37°C. Then the resulting protein fragments were separated by SDS-PAGE and electroblotted onto polyvinylidene-difluoride (PVDF) membrane. After staining with Coomassie Brilliant Blue the protein fragments were directly sequenced by Edman-degradation using the Procise 494A Sequencer (Perkin Elmer Applied Biosystems, Foster City, CA).

[4] = tested on: HUVECs; experiment: HUVEC tube formation assay on Matrigel; assay type: cell-based, human; conditions: two separate experiments
Method: Human umbilical vein endothelial cells (HUVECs) were isolated from umbilical cord veins and grown in Endothelial Cell Growth Medium (Promocell, Heidelberg, Germany) with 2% Ultroser G BioSepra serum substitute (PALL BioSepra, Cergy, France) and growth factors EGF and bFGF. For tube formation, HUVECs were grown on top of Matrigel (BD Biosciences) as described previously, [29].
To study the effect of PSA-cleaved protein fragments, 0.08 µM nidogen-1 or 0.4 µM galectin-3 (10 µg/ml each) were first incubated with 1 µM PSA for 24 h at 37°C in PBS (Lonza). Then PSA activity was blocked by one-hour incubation at room temperature with 2 µM monoclonal antibody 5C7 [38]. The mixture containing nidogen-1 or galectin-3 fragments with PSA blocked by antibody or the same amount of intact nidogen-1 or galectin-3 were added together with the cells onto gelled Matrigel and the cells were allowed to form tubular networks for 20 h. Control wells contained either PBS or 1 µM PSA. After overnight incubation, cell culture medium was collected from PBS and PSA control wells for SDS-PAGE and Western blotting. Images of tubular networks (100×magnification) were taken using an Axiovert 200 inverted light microscope connected to an AxioCam digital camera and visualized by AxioVision software (all from Zeiss, Göttingen, Germany).

[5] = 0.2 µM PSA, TBS, disappearance of full-length band

time for degradation of half of the intact protein [1, 5] [min]	cleavage site of PSA in nidogen-1 [3]	time for degradation of 50% of the protein ([1]; 0.2 µM PSA, 1 µM substrate, TBS, disappearance of full-length band) [h]	size of nidogen-1 fragments formed by PSA ([1]; 1 µM PSA, 0.5 µM recombinant human nidogen-1, 20 h)	Molecule	incubation time with more than half degraded by PSA [2] [min]	effect on tube formation, PSA-generated fragments ([4]; 10 µg/ml (0.08 µM nidogen-1, 0.4 µM galectin-3) precleaved by 1 µM PSA 24 h, PSA blocked by mAb 5C7, 20 h)	effect on tube formation, full-length protein ([4]; 10 µg/ml (0.08 µM nidogen-1, 0.4 µM galectin-3), 20 h, HUVECs on Matrigel)
80	–	–	–	semenogelin II: isolated from human seminal fluid (protein, UniProt Q02383 24-582, looked up) Semenogelin-2: QKGGSKGQLPSGSSQFPHGQKGQHYFGQKDQQHTKSKGSFSIQHTYHVDINDHDWTRKSQQYDLNALHKATKSKQHLGGSQQLLNYKQEGRDHDKSKGHFHMIVIHHKGGQAHHGTQNPSQDQGNSPSGKGLSSQCSNTEKRLWVHGLSKEQASASGAQKGRTQGGSQSSYVLQTEELVVNKQQRETKNSHQNKGHYQNVVDVREEHSSKLQTSLHPAHQDRLQHGPKDIFTTQDELLVYNKNQHQTKNLSQDQEHGRKAHKISYPSSRTEERQLHHGEKSVQKDVSKGSISIQTEEKIHGKSQNQVTIHSQDQEHGHKENKISYQSSSTEERHLNCGEKGIQKGVSKGSISIQTEEQIHGKSQNQVRIPSQAQEYGHKENKISYQSSSTEERRLNSGEKDVQKGVSKGSISIQTEEKIHGKSQNQVTIPSQDQEHGHKENKMSYQSSSTEERRLNYGGKSTQKDVSQSSISFQIEKLVEGKSQIQTPNPNQDQWSGQNAKGKSGQSADSKQDLLSHEQKGRYKQESSESHNIVITEHEVAQDDHLTQQYNEDRNPIST	–	–	–
11	–	–	–	semenogelin I: isolated from human seminal fluid (protein, UniProt P04279 24-462, looked up) Semenogelin-1: QKGGSKGRLPSEFSQFPHGQKGQHYSGQKGKQQTESKGSFSIQYTYHVDANDHDQSRKSQQYDLNALHKTTKSQRHLGGSQQLLHNKQEGRDHDKSKGHFHRVVIHHKGGKAHRGTQNPSQDQGNSPSGKGISSQYSNTEERLWVHGLSKEQTSVSGAQKGRKQGGSQSSYVLQTEELVANKQQRETKNSHQNKGHYQNVVEVREEHSSKVQTSLCPAHQDKLQHGSKDIFSTQDELLVYNKNQHQTKNLNQDQQHGRKANKISYQSSSTEERRLHYGENGVQKDVSQSSIYSQTEEKAQGKSQKQITIPSQEQEHSQKANKISYQSSSTEERRLHYGENGVQKDVSQRSIYSQTEKLVAGKSQIQAPNPKQEPWHGENAKGESGQSTNREQDLLSHEQKGRHQHGSHGGLDIVIIEQEDDSDRHLAQHLNNDRNPLFT	15	–	–
–	GVVF^380 ↓ SYNTD	22	85 kDa and 55 kDa	nidogen-1: recombinant human nidogen-1, linker protein in the basement membrane (protein, UniProt P14543 29-1247, looked up) Nidogen-1: LSRQELFPFGPGQGDLELEDGDDFVSPALELSGALRFYDRSDIDAVYVTTNGIIATSEPPAKESHPGLFPPTFGAVAPFLADLDTTDGLGKVYYREDLSPSITQRAAECVHRGFPEISFQPSSAVVVTWESVAPYQGPSRDPDQKGKRNTFQAVLASSDSSSYAIFLYPEDGLQFHTTFSKKENNQVPAVVAFSQGSVGFLWKSNGAYNIFANDRESVENLAKSSNSGQQGVWVFEIGSPATTNGVVPADVILGTEDGAEYDDEDEDYDLATTRLGLEDVGTTPFSYKALRRGGADTYSVPSVLSPRRAATERPLGPPTERTRSFQLAVETFHQQHPQVIDVDEVEETGVVFSYNTDSRQTCANNRHQCSVHAECRDYATGFCCSCVAGYTGNGRQCVAEGSPQRVNGKVKGRIFVGSSQVPIVFENTDLHSYVVMNHGRSYTAISTIPETVGYSLLPLAPVGGIIGWMFAVEQDGFKNGFSITGGEFTRQAEVTFVGHPGNLVIKQRFSGIDEHGHLTIDTELEGRVPQIPFGSSVHIEPYTELYHYSTSVITSSSTREYTVTEPERDGASPSRIYTYQWRQTITFQECVHDDSRPALPSTQQLSVDSVFVLYNQEEKILRYALSNSIGPVREGSPDALQNPCYIGTHGCDTNAACRPGPRTQFTCECSIGFRGDGRTCYDIDECSEQPSVCGSHTICNNHPGTFRCECVEGYQFSDEGTCVAVVDQRPINYCETGLHNCDIPQRAQCIYTGGSSYTCSCLPGFSGDGQACQDVDECQPSRCHPDAFCYNTPGSFTCQCKPGYQGDGFRCVPGEVEKTRCQHEREHILGAAGATDPQRPIPPGLFVPECDAHGHYAPTQCHGSTGYCWCVDRDGREVEGTRTRPGMTPPCLSTVAPPIHQGPAVPTAVIPLPPGTHLLFAQTGKIERLPLEGNTMRKTEAKAFLHVPAKVIIGLAFDCVDKMVYWTDITEPSIGRASLHGGEPTTIIRQDLGSPEGIAVDHLGRNIFWTDSNLDRIEVAKLDGTQRRVLFETDLVNPRGIVTDSVRGNLYWTDWNRDNPKIETSYMDGTNRRILVQDDLGLPNGLTFDAFSSQLCWVDAGTNRAECLNPSQPSRRKALEGLQYPFAVTSYGKNLYFTDWKMNSVVALDLAISKETDAFQPHKQTRLYGITTALSQCPQGHNYCSVNNGGCTHLCLATPGSRTCRCPDNTLGVDCIEQK	–	did not have any effect on tube formation	did not have any effect on tube formation
